Source: publication PMC2805716, “Critical Structural and Functional Roles for the N-Terminal Insertion Sequence in Surfactant Protein B Analogs” (PLoS ONE, 2010)
Where a SMILES comes first, the peptide text is derived from it. Bridges are numbered along the chain shown (N, C = ends). Where no end group is shown, it is not given here.

Key:
chip-linked Cys-MB = target: T1, chip-linked Cys-MB (Homo sapiens, UniProt P07988, DEL226-262); experiment: SPR binding to chip-linked Cys-MB; details: HBS-EP buffer pH 7.4 with 0.005% P20, 37°C, 1 µg peptide/ml, mean; for koff / kon: 50 µl/min
T1 construct: made in house; host or cells: chemical solid-phase peptide synthesis (Fmoc), no expression host
Description: (§1) The respective binding affinities of S-MB and MB, both to themselves (self-association) and to each other (cross-association), were measured with surface plasmon resonance (SPR) spectroscopy using a Biacore 3000 system (Biacore, Uppsala, Sweden), [59]. S-MB and MB, each with a cysteine added to its N-terminus, were chemically linked to a thiol Biacore chip (BR-1000-14, research grade, containing a carboxymethylated dextran matrix covalently attached to a gold film). Solutions of peptide in HBS-EP buffer (i.e., 10 mM Hepes, pH 7.4, 150 mM NaCl, 3 mM EDTA, 0.005% surfactant P20) were then flowed over the chip-linked peptide at a flow rate of 50 µl/min to determine binding affinity at 37°C. Assessment of peptide binding was determined with sensorgrams, in which the arbitrary response units (RU) were plotted as a function of time. Binding associated with control medium containing no peptide was subtracted from final affinity curves, and mean “on” and “off” rate constants (kon and koff) and the dissociation equilibrium constant (KD = koff/kon) were calculated using BIAevaluation Software Version 4.1 based on curve fitting form measurements at 1 µg peptide/ml buffer concentration. The sensor surface was regenerated using 10 mM HCl between sample injections.

chip-linked Cys-S-MB = target: T2, chip-linked Cys-S-MB (Homo sapiens, UniProt P07988, DEL226-262); experiment: SPR binding to chip-linked Cys-S-MB; details: HBS-EP buffer pH 7.4 with 0.005% P20, 37°C, 50 µl/min, 1 µg peptide/ml; mean
T2 construct: made in house; host or cells: chemical solid-phase peptide synthesis (Fmoc), no expression host
T2 sequence (P07988 with tags, fused parts or gaps DEL226-262): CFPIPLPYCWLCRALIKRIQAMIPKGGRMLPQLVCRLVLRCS
Description: as §1

[1] = test system: ventilated rats with ARDS induced by in vivo lavage; experiment: Ventilated lung-lavaged rat model of ARDS; set-up: species or system Sprague-Dawley rats; details: n = 8–10; for relative order of pulmonary activity (oxygenation and compliance): 90 min after intratracheal 100 mg/kg surfactant; for arterial oxygenation (PaO2) / dynamic lung compliance: synthetic lipids +1.5 mol% peptide, 90 min; for arterial oxygenation (PaO2): 100% oxygen
Description: Animal experiments were performed under established protocols approved by the Animal Care and Use Committee at the Los Angeles Biomedical Research Institute at Harbor-UCLA Medical Center. Anesthesia, surgery, lavage, ventilation, and monitoring methods used have been detailed previously [35]–[37]. Briefly, adult male Sprague-Dawley rats weighing 200–225 g were anesthetized with 35 mg/kg pentobarbital sodium and 80 mg/kg ketamine by intraperitoneal injection, intubated, and ventilated with a rodent ventilator (Harvard Apparatus, South Natick, MA) with 100% oxygen, a tidal volume of 7.5 ml/kg and a rate of 60/min. An arterial line was placed in the abdominal aorta for measurements of arterial blood pressure and blood gases. Rats were paralyzed with 1 mg/kg pancuronium bromide intravenously. Only animals with PaO2 values >400 torr while ventilated with 100% oxygen and with normal blood pressure values were included in the experiments. Airway pressures were measured with a pressure transducer (Gould Inc., Cleveland, OH) and tidal volume with a pneumotachometer (Validyne, Northridge, CA) connected to a multi-channel recorder (Gould Inc., Cleveland, OH). The lungs were lavaged 8–12 times with 8 ml of pre-warmed 0.9% NaCl. After the PaO2 in 100% oxygen had reached stable values of <100 torr, the rats were treated with 100 mg/kg of experimental surfactant by intratracheal instillation. Arterial blood gases, tidal volume and airway pressures were determined at 15 min intervals throughout each experiment. Dynamic lung compliance was calculated by dividing tidal volume/kg body weight by changes in airway pressure (peak inspiratory pressure minus positive end-expiratory pressure) (mL/kg/cmH2O). Ninety minutes after surfactant instillation, rats were killed with 200 mg/kg pentobarbital sodium intravenously. Each treatment group consisted of 8–10 animals.

[2] = Captive bubble surfactometry, dynamic surface activity; assay type: physicochemical; details: for minimum surface tension: 1.5 mol% in synthetic lipids 16:10:6:1:2 (weight) DPPC:POPC:POPG:POPE:cholesterol, 20 cycles/min, ten cycles, 37°C, n = 4
Description: The captive bubble surfactometer used here was a fully-computerized version of that described by Schurch and co-workers [79]–[81]. In brief, the sample chamber of the apparatus was cut from high-quality cylindrical glass tubing (10 mm inner diameter). A Teflon® piston with a tight O-ring seal was fitted into the glass tubing from the top end, with a plug of buffered 1% agarose gel inserted between the piston and the surfactant solution that was added through a stainless steel port from the other end of the sample chamber. The chamber and piston were vertically mounted in a steel rack, the height of which was regulated by a precision micrometer gear. In a typical experiment, the chamber was filled with a buffered salt solution (140 mM NaCl, 10 mM HEPES, 2.5 mM CaCl2, pH 6.9) containing 10% sucrose. One µl of surfactant solution containing 35 µg of lipid was added to this subphase, which was stirred by a small magnetic bar at 37°C. The subphase volume in the sample chamber averaged 0.7 ml (0.5–1 ml), resulting in a final average surfactant lipid concentration of 50 µg/ml (35–75 µg/ml). An air bubble approximately 7 mm in diameter (∼200 µl in volume) was then introduced within the sample chamber and subjected to cyclic volume (surface area) changes by systematically varying the height of the steel rack following a 5 min pause to allow adsorption to the air-water interface. The ionic composition of the buffered agarose plug minimized bubble adhesion to the plug during cycling, so that an uninterrupted bubble interface was maintained. […] Bubble images were continuously monitored during compression-decompression using a digital video camera (PULNIX Model TM-200, Pulmix America Inc, Sunnyvale, CA) and a professional video recorder (Panasonic AG-1980P, Secaucus, NJ) coupled to a computer with an Intel Pentium 4 processor. […] Bubble areas and volumes were calculated by an original algorithm relating bubble height and diameter to areas of revolution, and bubble surface tension was determined by the method of Malcolm and Elliot. […]

[3] = FTIR, methanol; ref [30]; cited from earlier work
Excerpt: Although the “10 nsec” MD simulation of dimer S-MB provides a reasonable framework to account for our SDS-PAGE and SPR results (Figs. 8 and 10), it is worthwhile to consider other structural models by which the N-terminal insertion sequence may promote the self-association of S-MB. One possible alternative is that oligomeric S-MB may be due to the N-terminal sequence (residues 1-7) forming β-sheet. The N-terminal SP-B(1–9) (Fig. 2) was earlier proposed to act as a ‘biochemical Velcro®,’ facilitating in vivo either the aggregation of SP-B or the interactions of SP-B with SP-C [50]. In support ...

[4] = target: T3, Cys-S-MB (Super Mini-B with a cysteine added to its N-terminus, chip-linked) (human); experiment: SPR; Biacore 3000; Cys-MB or Cys-S-MB linked to a thiol chip; MB or S-MB at 1 µg peptide/ml in HBS-EP (10 mM Hepes, pH 7.4, 150 mM NaCl, 3 mM EDTA, 0.005% surfactant P20) flowed over at 50 µl/min, 37°C; constants from curve fitting at the one concentration; details: both partners purified
T3 construct: cysteine added to the N-terminus to link the peptide to the thiol Biacore chip; surfactant protein B (SP-B), human, residues 1-25; numbers count on: the mature protein (79 residues); surfactant protein B (SP-B), human, residues 63-78; Immobilised on the SPR chip; also called chipped S-MB; N-terminal Cys-S-MB
T3 chain: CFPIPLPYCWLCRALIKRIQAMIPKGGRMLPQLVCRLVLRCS

[5] = target: T4, Cys-MB (Mini-B with a cysteine added to its N-terminus, chip-linked) (human); experiment: as above; details: both partners purified
T4 construct: cysteine added to the N-terminus to link the peptide to the thiol Biacore chip; surfactant protein B (SP-B), human, residues 8-25; numbers count on: the mature protein (79 residues); surfactant protein B (SP-B), human, residues 63-78; Immobilised on the SPR chip; also called chipped MB; N-terminal Cys-MB
T4 chain: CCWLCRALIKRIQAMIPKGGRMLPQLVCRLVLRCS

[6] = lipid monolayers containing palmitic acid; ref [31], [32]; cited from earlier work
Excerpt: Previous structural and functional studies with synthetic peptides representing the N- and C-terminal regions of SP-B further support the hypothesis that these charged amphipathic helices participate in surfactant activities. […] The cationic N-terminus of SP-B may here interact with anionic lipids to remove the driving force for lipid squeeze-out from the surface film, [32]. In additional studies, SP-B(1–25 ...

[7] = intratracheal 100 mg/kg surfactant

Molecule: CC[C@H](C)[C@@H]1NC(=O)[C@H](CCCNC(=N)N)NC(=O)[C@H](CCCCN)NC(=O)[C@H]([C@@H](C)CC)NC(=O)[C@H](CC(C)C)NC(=O)[C@H](C)NC(=O)[C@H](CCCNC(=N)N)NC(=O)[C@@H]2CSSC[C@H](NC(=O)[C@H](C(C)C)NC(=O)[C@H](CC(C)C)NC(=O)[C@H](CCC(N)=O)NC(=O)[C@@H]3CCCN3C(=O)[C@H](CC(C)C)NC(=O)[C@H](CCSC)NC(=O)[C@H](CCCNC(=N)N)NC(=O)CNC(=O)CNC(=O)[C@H](CCCCN)NC(=O)[C@@H]3CCCN3C(=O)[C@H]([C@@H](C)CC)NC(=O)[C@H](CCSC)NC(=O)[C@H](C)NC(=O)[C@H](CCC(N)=O)NC1=O)C(=O)N[C@@H](CCCNC(=N)N)C(=O)N[C@@H](CC(C)C)C(=O)N[C@@H](C(C)C)C(=O)N[C@@H](CC(C)C)C(=O)N[C@@H](CCCNC(=N)N)C(=O)N[C@H](C(=O)N[C@@H](CO)C(=O)O)CSSC[C@H](N)C(=O)N[C@@H](Cc1c[nH]c3ccccc13)C(=O)N[C@@H](CC(C)C)C(=O)N2 [MB] (H-CWLCRALIKRIQAMIPKGGRMLPQLVCRLVLRCS-OH; disulfide 1-33, 4-27)
- koff (chip-linked Cys-MB): 0.0168 s⁻¹
- kon (chip-linked Cys-MB): 91900 M⁻¹ s⁻¹
- Kd (chip-linked Cys-MB; KD = koff/kon): 183 nM
- koff (chip-linked Cys-S-MB): 0.00806 s⁻¹
- kon (chip-linked Cys-S-MB): 200000 M⁻¹ s⁻¹

Molecule: FPIPLPYCWLCRALIKRIQAMIPKGGRMLPQLVCRLVLRCS (disulfide 8-40, 11-34) [S-MB]
- koff (chip-linked Cys-MB): 0.00736 s⁻¹
- kon (chip-linked Cys-MB): 141000 M⁻¹ s⁻¹
- koff (chip-linked Cys-S-MB): 0.000901 s⁻¹
- kon (chip-linked Cys-S-MB): 44700 M⁻¹ s⁻¹

Molecule: H-FPIPLPYC-NH2 [SP-B(1–8)]
- relative order of pulmonary activity (oxygenation and compliance) [1]: S-MB > MB > pig SP-B > SP-B(1–8)> lipids alone
- arterial oxygenation (PaO2) [1, 7]: minimal effects
- dynamic lung compliance [1, 7]: minimal effects
- minimum surface tension [2]: 20 mN/m
- statistical comparison of minimum surface tension ([2]; after ten cycles, versus S-MB, MB and pig SP-B surfactants): significantly higher

Molecule: SP-B(1–9): N-terminal SP-B(1–9) peptide (FPIPLPYCW; Pulmonary surfactant-associated protein B; UniProt P07988 201-209, looked up, fragment)
- β-sheet content [3]: 26.3%
- β-sheet content in residues [3]: ~2.4 residues

B1: Mini-B (peptide)
chain: CWLCRALIKRIQAMIPKGGRMLPQLVCRLVLRCS
notes: surfactant protein B (SP-B), human, residues 8-25 (N-terminal helix region); numbers count on: the mature protein (79 residues); surfactant protein B (SP-B), human, residues 63-78 (C-terminal helix region); Oxidised form with intramolecular disulfides Cys-8 to Cys-40 and Cys-11 to Cys-34 (S-MB numbering); also called MB; source: synthetic peptide (Fmoc solid phase, HPLC-purified, air-oxidised)
- Kd [4]: 40.4 nM
- koff [4]: 0.00806 s⁻¹
- kon [4]: 200000 M⁻¹ s⁻¹
- Kd [5]: 183 nM
- koff [5]: 0.0168 s⁻¹
- kon [5]: 91900 M⁻¹ s⁻¹

B2: pig SP-B: native pig SP-B, positive control (protein, UniProt P15782 1-79, looked up)
Pulmonary …: FPIPLPFCWLCRTLIKRIQAVVPKGVLLKAVAQVCHVVPLPVGGICQCLAERYIVICLNMLLDRTLPQLVCGLVLRCSS
modifications: Pulmonary surfactant-associated protein B
notes: native pig SP-B, positive control
- relative order of pulmonary activity (oxygenation and compliance) [1]: S-MB > MB > pig SP-B > SP-B(1–8)> lipids alone
- arterial oxygenation (PaO2) [1, 7]: increased quickly
- dynamic lung compliance [1, 7]: increased quickly
- oxygenation and compliance versus SP-B1-8 and lipids only surfactants [1, 7]: consistently surpassed the performance of SP-B1-8 and lipids only surfactants (p<0.001)
- significance of differences in oxygenation and compliance between S-MB, MB and pig SP-B [1, 7]: statistically significant (p<0.05) starting at 30 min after surfactant instillation
- minimum surface tension [2]: < 3 mN/m

B3: SP-B: 79 amino acids, lipid-associating lung protein, covalently linked homodimer (protein, UniProt P07988 201-279, looked up)
Pulmonary …: FPIPLPYCWLCRALIKRIQAMIPKGALAVAVAQVCRVVPLVAGGICQCLAERYSVILLDTLLGRMLPQLVCRLVLRCSM
modifications: Pulmonary surfactant-associated protein B
notes: 79 amino acids, lipid-associating lung protein, covalently linked homodimer
- collapse pressure of lipid monolayers [6]: increase the collapse pressure
